T1: recombinant human C1r2s2 Flag/His tetramer (human, UniProt P09871 16-688; P00736 18-705)
T1 construct: whole entries named; also called hc1r2s2; rC1r2s2
T1 chain 1: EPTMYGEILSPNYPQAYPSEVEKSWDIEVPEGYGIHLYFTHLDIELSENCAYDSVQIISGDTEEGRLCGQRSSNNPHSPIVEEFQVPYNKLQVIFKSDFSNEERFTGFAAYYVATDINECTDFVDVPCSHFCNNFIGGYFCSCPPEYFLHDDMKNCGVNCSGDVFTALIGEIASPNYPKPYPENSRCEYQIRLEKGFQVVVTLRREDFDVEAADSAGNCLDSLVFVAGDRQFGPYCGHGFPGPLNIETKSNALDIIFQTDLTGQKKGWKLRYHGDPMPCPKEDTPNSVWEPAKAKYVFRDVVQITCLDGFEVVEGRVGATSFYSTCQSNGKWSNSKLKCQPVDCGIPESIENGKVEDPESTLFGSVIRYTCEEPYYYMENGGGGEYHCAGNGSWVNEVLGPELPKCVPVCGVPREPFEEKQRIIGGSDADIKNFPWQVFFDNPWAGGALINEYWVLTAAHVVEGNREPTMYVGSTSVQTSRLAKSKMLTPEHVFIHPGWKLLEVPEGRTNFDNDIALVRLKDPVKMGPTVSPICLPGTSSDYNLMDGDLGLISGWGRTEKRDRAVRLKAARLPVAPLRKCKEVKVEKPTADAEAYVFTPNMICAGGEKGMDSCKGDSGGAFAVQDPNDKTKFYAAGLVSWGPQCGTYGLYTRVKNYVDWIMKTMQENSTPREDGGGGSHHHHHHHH
T1 chain 2: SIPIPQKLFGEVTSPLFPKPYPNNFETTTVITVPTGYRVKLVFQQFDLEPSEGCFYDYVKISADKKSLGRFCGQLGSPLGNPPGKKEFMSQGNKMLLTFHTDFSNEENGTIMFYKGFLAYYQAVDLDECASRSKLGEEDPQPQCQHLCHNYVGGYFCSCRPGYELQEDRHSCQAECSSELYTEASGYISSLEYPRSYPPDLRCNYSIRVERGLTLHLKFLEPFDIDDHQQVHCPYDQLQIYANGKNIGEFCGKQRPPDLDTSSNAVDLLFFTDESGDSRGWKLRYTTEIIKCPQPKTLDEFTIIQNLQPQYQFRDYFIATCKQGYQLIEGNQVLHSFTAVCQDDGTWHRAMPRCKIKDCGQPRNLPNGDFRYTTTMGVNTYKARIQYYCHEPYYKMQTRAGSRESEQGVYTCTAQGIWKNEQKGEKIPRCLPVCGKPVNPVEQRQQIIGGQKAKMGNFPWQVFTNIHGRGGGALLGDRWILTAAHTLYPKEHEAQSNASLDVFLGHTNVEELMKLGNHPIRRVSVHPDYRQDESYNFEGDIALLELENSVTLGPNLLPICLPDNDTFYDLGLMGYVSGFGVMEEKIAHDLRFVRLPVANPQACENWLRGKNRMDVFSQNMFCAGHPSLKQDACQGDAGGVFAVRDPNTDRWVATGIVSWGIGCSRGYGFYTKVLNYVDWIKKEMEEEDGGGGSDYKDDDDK

B1: COS0499ee-SG1148 (antibody, human IgG1, kappa, V domains shown)
VH: QSLEESGGRLVTPGTPLTLTCTASGFSLSNYNMAWVRQAPGKGLEWIGIIETTTNTYYARWARGRFTISKTSSTTVDLQIASPTTEDTATYFCGRRVSNSHDLWGPGTLVTVSS
VL: AYDMTQTPASVSAAVGGTVTINCQASQTIGGWCAWYQQKPGQPPKLLIYKASTLASGVSSRFKGSGSGTEFALTISDLECDDAATYYCQHGYYTSSTIENTFGGGTKVEIKR
notes: also called COS499; COS499ee(-SG1148)
B2: COS0637cc-SG1148 (antibody, human IgG1, kappa, V domains shown)
VH: QSLEESGGRLVTPGTPLTLTCTASGFSLSAYAMNWVRQAPGKGLEWIGLIYGSGSTFYASWAKGRFTISKTSTTVDLKMTSLTTEDTATYFCARGRSVNYNSDFKLWGPGTLVTVSS
VL: QVLTQTPSSVSAAVGGTVTINCQASQSLHDKKNLAWYQHKPGQRPNLLIYGASTLESGVPSRFKGSGSGTEYTLTISDLECDDAAAYYCQGEFSCSSADCNTFGGGTKVEIKR
B3: COS0631gg-SG1148 (antibody, human IgG1, kappa, V domains shown)
VH: QSVEESGGRLVTPGTPLTLTCTVSGFSLSRYSMGWVRQAPGKGLEWIGIIYADGGAYYASWAKGRFTISKTSTTMDLKVTSPTTEDTATYFCARGQFINSNEFFNPWGPGTLVTVSS
VL: QVLTQTASSVSAVVGGTVTINCQASQSLHNNKNLAWYQQKPGQPPRLLIYYASTLASGVSSRFKGSGSGTQFTLTISDLECDDAATYYCAGEFSCSNGDCNAFGGGTKVEIKR
B4: COS0547gg-SG1148 (antibody, human IgG1, kappa, V domains shown)
VH: QSLEESGGRLVTPGTPLTLTCTASGFSLSSYHMDWVRQAPGKGLEWIGIITYTGDTYYATWAKGRFTISKTSSTTVDLKMASLTTEDTATYFCARRQYDAYNVWGPGTLVTVSS
VL: AYDMTQTPASVEVAVGGTVTIKCQASQSINNYLAWYQQKPGQPPKLLIYYASTLASGVPSRFKGSRSGTEFTLTISGVECADAATYYCQHGYYTSSNIDSVFGGGTKVEIKR
B5: COS0448oo-SG1148 (antibody, human IgG1, kappa, V domains shown)
VH: QSVEESGGRLVTPGTPLTLTCTVSGFSLSNYGMIWVRQAPGEGLEYIGFVSGSGSAYYANWVKGRFTISKTSTTVDLKMTSLTTEDTATYFCARGAYNTDSYSYSLYYGMDLWGPGTLVTVSS
VL: QIVMTQTPASVEVAVGGTVTIKCQASQSIYSYLSWYQQKPGQPPKLLIYGASTLASGVPSRFKGSRSGTEFTLTISDLECADAATYYCQSNYATTTTYGTFGGGTKVEIKR
notes: Rabbit B-cell derived variable regions; also called COS448; COS44800(-SG1148)

Molecular target: T1, recombinant human C1r2s2 Flag/His …
Experiment: SPR displacement (37 degrees C, pH 7.4): C1r2s2 captured by anti-His, C1q 100 nM pre-bound, antibody 500 nM at 10 micro L/min; time from antibody injection until the antibody sensorgram falls below the buffer sensorgram; competitor native human C1q
Method: An anti-His antibody (GE-Healthcare) was immobilized onto all flow cells of a CM4 sensor chip using an amine coupling kit (GE Healthcare). The antibodies, recombinant human C1r2s2 Flag/His tetramer and native human C1q (Comptech A099) were prepared in pH 7.4 buffer (20 mM ACES, 150 mM NaCl, 1.2 mM CaCl₂, 1 mg/mL BSA (IgG-free), 1 mg/mL CMD, 0.05% Tween 20, 0.005% NaN₃, pH 7.4). Recombinant human C1r2s2 Flag/His tetramer was first captured onto the sensor surface by the anti-His antibody (“hc1r2s2” in FIG. 2A). The capture levels were aimed at 200 resonance unit (RU). Native human C1q was injected at 100 nM to have a capture of 200 RU (“hc1q” in FIG. 2A), followed by antibody injection at 500 nM at 10 micro L/min for 1200 sec immediately. The sensor surface was regenerated each cycle with 10 mM Glycine-HCl (pH 1.5). For the antibodies with the C1q displacement function, the response unit of Sensorgram 2 (large dotted line; “C1r2s2+C1q+Ab” in FIGS. 2A and 2C) is lower than the response unit in Sensorgram 1 (small dotted line; “C1r2s2+C1q+buffer” in FIGS. 2A and 2C) after the time point where Sensorgrams 1 and 2 cross (“time point of crossover”). Depending on the time when Sensorgram 2 crosses over Sensorgram 1, COS0499 was categorized as a fast displacement variant. […] COS0448 was in the middle of fast displacement and slow displacement.
The time point of crossover is identified by subtraction of the buffer response (Sensorgram 1) from the antibody (Ab) response (Sensorgram 2), and referring to the time point when the differential value changes from positive to negative (Table 4). The time from the start of Ab injection is indicated in Table 4 as “time point of crossover”.

Row | Binder | Time point of crossover (post-injection) [s]
1 | B1 | 61.9
2 | B2 | 764
3 | B3 | 736
4 | B4 | 542
5 | B5 | 169
